These are literature values, as cited in PMC11036797.

Among the targets are nectin-3 (Homo sapiens) (UniProt Q9NQS3); CSPG4 (Homo sapiens) (UniProt Q6UVK1); FZD1 (Homo sapiens) (UniProt Q9UP38); FZD7 (Homo sapiens) (UniProt O75084); FZD2 (Homo sapiens) (UniProt Q14332).

FZD1 (Homo sapiens), sequence (Q9UP38 70-647): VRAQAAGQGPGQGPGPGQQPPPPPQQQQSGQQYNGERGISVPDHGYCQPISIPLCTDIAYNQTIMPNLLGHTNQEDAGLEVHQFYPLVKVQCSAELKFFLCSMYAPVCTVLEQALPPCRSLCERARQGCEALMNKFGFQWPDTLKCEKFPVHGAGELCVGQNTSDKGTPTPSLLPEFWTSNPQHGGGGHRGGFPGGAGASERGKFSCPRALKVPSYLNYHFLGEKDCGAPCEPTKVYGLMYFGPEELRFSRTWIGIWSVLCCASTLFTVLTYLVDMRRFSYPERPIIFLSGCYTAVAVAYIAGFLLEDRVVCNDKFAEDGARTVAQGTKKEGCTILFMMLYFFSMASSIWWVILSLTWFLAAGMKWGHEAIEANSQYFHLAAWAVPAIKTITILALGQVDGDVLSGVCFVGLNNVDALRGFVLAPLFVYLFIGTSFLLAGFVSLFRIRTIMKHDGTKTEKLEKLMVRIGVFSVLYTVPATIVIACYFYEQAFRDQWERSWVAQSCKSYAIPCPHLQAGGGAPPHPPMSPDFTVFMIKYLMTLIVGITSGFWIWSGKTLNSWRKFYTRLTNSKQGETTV
FZD2 (Homo sapiens), sequence (Q14332 24-565): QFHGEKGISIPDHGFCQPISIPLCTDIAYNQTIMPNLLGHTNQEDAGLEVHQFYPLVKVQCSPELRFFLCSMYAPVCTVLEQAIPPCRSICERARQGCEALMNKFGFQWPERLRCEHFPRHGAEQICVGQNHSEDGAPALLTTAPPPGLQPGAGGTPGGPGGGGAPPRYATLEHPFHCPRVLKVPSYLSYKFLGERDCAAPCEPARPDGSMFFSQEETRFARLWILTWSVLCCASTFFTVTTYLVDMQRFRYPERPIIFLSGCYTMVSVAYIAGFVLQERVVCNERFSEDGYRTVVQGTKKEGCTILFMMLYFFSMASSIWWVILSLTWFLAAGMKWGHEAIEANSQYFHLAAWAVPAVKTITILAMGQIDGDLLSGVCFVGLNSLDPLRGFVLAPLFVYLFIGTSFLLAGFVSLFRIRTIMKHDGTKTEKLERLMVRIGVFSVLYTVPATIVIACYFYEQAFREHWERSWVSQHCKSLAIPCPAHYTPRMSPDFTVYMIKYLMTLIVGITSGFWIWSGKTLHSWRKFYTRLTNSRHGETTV
nectin-3 (Homo sapiens), sequence (Q9NQS3 58-549): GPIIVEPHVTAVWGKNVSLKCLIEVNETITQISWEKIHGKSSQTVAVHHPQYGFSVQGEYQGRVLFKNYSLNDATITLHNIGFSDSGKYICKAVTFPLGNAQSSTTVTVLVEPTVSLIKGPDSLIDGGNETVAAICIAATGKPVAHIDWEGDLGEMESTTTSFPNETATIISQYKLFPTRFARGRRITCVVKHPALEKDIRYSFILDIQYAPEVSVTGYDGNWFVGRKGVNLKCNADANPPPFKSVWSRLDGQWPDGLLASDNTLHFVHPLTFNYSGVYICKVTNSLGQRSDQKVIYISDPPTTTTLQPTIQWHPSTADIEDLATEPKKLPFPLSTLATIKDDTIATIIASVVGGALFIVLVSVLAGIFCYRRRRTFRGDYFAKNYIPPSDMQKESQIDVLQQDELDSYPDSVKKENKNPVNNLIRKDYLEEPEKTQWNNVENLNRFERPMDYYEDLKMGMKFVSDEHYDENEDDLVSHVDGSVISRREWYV
CSPG4 (Homo sapiens), sequence (Q6UVK1 30-2322): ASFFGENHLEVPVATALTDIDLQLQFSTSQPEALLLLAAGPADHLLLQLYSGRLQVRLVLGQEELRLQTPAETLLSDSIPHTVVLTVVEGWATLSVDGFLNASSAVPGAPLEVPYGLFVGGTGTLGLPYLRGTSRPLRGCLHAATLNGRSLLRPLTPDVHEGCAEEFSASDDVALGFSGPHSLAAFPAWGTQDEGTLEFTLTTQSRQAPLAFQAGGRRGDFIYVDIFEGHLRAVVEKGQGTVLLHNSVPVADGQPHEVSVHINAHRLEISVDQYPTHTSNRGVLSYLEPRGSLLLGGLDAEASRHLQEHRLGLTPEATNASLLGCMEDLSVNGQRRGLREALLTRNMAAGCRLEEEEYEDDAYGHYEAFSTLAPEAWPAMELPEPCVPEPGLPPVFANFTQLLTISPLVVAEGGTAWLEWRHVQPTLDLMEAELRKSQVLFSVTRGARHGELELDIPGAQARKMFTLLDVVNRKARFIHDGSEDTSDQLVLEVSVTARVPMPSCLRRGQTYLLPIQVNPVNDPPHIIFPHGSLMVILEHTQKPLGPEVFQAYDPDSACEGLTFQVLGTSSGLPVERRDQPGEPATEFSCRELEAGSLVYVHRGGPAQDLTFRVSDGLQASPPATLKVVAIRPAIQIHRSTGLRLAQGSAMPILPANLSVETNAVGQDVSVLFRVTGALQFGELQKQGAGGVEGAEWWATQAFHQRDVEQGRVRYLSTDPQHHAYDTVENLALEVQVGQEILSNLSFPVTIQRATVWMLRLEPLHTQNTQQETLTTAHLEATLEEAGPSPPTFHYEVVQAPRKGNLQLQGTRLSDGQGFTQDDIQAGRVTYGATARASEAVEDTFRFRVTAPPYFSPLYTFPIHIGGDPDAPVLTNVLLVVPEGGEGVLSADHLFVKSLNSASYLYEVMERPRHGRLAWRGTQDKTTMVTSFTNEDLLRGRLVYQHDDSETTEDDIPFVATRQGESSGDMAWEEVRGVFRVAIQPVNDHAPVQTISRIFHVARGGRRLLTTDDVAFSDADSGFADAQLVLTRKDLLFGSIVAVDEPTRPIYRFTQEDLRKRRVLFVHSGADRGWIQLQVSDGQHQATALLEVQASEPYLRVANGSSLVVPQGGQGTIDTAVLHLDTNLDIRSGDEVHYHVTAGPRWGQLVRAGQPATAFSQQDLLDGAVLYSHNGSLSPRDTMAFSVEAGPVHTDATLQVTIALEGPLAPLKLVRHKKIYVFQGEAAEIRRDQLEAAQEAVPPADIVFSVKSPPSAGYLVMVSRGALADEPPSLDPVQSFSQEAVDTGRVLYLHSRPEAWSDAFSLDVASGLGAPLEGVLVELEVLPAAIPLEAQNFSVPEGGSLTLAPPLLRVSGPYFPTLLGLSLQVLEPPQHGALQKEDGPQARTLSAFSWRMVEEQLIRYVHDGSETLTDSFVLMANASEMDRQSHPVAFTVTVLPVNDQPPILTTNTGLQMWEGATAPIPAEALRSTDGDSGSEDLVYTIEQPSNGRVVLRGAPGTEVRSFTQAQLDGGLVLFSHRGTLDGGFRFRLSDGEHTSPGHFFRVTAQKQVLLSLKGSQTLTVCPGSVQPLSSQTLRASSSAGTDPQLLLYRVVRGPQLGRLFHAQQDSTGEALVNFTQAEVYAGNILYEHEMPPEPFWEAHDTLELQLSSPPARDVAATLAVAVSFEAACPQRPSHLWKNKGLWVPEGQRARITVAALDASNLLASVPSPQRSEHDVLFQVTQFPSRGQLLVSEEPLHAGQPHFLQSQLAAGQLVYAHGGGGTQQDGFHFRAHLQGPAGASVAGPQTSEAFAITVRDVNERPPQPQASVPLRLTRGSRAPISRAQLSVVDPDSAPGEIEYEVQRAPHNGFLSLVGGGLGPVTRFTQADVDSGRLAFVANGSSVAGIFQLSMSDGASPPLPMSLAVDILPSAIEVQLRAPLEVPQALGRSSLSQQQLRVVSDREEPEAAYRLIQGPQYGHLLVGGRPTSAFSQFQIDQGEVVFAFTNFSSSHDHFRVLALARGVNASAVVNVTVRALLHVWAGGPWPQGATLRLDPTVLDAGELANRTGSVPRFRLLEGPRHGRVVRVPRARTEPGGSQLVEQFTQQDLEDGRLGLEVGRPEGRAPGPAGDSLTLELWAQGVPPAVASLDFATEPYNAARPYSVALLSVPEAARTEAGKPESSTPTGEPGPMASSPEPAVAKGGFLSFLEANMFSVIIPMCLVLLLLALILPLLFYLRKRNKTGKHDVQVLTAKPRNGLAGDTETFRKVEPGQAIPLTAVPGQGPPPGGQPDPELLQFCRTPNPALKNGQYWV

Take TcdB1 (from UniProt P18177): the Kd (commonly the free concentration of one partner at which half of the binding sites on the other are occupied at equilibrium, for simple one-to-one binding) was 53 nM with nectin-3 (Homo sapiens); 15.2 nM in the data set with CSPG4 (Homo sapiens); 32 nM in the data set with FZD1 (Homo sapiens); 27 nM with FZD7 (Homo sapiens); 19 nM in the data set with FZD2 (Homo sapiens).
